Laboratory results published in the supplement of paper PMC10126150.
± gives the standard deviation of the averaged measurements.

tested on: ATP; test: switch fluorescence ratio, 500 uM ATP over buffer (Cy3 cluster intensity, sum of 5 cycles each) (fold (ratio)); higher = stronger signal-on switching upon ATP binding; sequences stand for … in TCGTCGGCAGCGTCAGATGTGTATAAGAGACAGTTTTTTTTTTTTTTTTTTTTTTTTT…TC; details: aptamer strand: ATP DNA aptamer (quencher-CACCTGGGGGAGTATTGCGGAGGAAGG + anchor), 100 nM annealed; ATP concentration: 500 uM
Method in brief: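 Between each of five buffer/ATP cycles, the flow-cell was stripped with NaOH and re-annealed. Each cycle imaged Cy3-labelled switching-strand clusters, annealed to 100 nM quencher-labelled ATP aptamer on a modified Illumina MiSeq flow-cell, first in selection buffer and then after 15 min with 500 uM ATP at 22 °C. The fluorescence ratio is summed target-cycle over summed buffer-cycle Cy3 intensity per cluster, averaged per switch-domain sequence, with clusters outside 100-1000 RFU excluded.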
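Note: ATP exposure 15 min at 22 °C before imaging.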

| Sequence | switch fluorescence ratio |
| --- | --- |
| TAGCGGGGGA | 1.04 ± 0.019 |
| TAGCGGGGTT | 0.9757 ± 0.0054 |
| TAGCGTATGA | 1.03 ± 0.014 |
| TAGCTAATTT | 0.979 ± 0.027 |
| TAGCTACTTC | 1.73 ± 0.93 |
| TAGCTATGTG | 0.982 ± 0.038 |
| TAGCTCCGGG | 1.055 ± 0.0063 |
| TAGCTCGGGA | 0.9742 ± 0.0097 |
| TAGCTCGGTG | 1 ± 0.042 |
| TAGCTGAGTT | 0.984 ± 0.014 |
| TAGCTGGAGG | 0.998 ± 0.035 |
| TAGCTGGATG | 0.98618 ± 0.00039 |
| TAGCTGGCAC | 1.02 ± 0.0034 |
| TAGCTGTTAT | 0.997 ± 0.03 |
| TAGCTGTTTT | 1.02 ± 0.02 |
| TAGCTTGTTG | 1.02 ± 0.025 |
| TAGCTTTTTA | 1 ± 0.026 |
| TAGGAAATTT | 1.03 ± 0.087 |
| TAGGAAGGCA | 0.967 ± 0.0024 |
| TAGGACACGT | 1.03 ± 0.012 |
| TAGGACAGCG | 0.969 ± 0.078 |
| TAGGAGCTTG | 1 ± 0.042 |
| TAGGAGGGT | 1.033 ± 0.0037 |
| TAGGAGGGTT | 0.987 ± 0.026 |
| TAGGAGTTGT | 0.995 ± 0.016 |

| Sequence | switch fluorescence ratio |
| --- | --- |
| TAGGATGCAC | 1.014 ± 0.0033 |
| TAGGATTAAT | 0.999 ± 0.012 |
| TAGGCCAGTT | 0.996 ± 0.011 |
| TAGGCCGCTG | 1.07 ± 0.15 |
| TAGGCGCTAG | 0.999 ± 0.011 |
| TAGGCGTGTC | 0.992 ± 0.016 |
| TAGGCTTGAA | 1.03 ± 0.028 |
| TAGGGAAGGG | 0.976 ± 0.032 |
| TAGGGAATCA | 0.97 ± 0.014 |
| TAGGGACTAG | 1.02 ± 0.015 |
| TAGGGACTAT | 1.02 ± 0.018 |
| TAGGGAGAGT | 1.01 ± 0.022 |
| TAGGGAGCCT | 0.964 ± 0.016 |
| TAGGGAGGCT | 0.992 ± 0.038 |
| TAGGGATGGG | 1.02 ± 0.019 |
| TAGGGCAGGG | 1 ± 0.0022 |
| TAGGGCGAGG | 0.9899 ± 0.001 |
| TAGGGCGCAG | 0.959 ± 0.028 |
| TAGGGCGGAG | 0.957 ± 0.025 |
| TAGGGCGGGT | 0.972 ± 0.039 |
| TAGGGCTGTG | 0.995 ± 0.059 |
| TAGGGGAAAG | 0.99 ± 0.052 |
| TAGGGGAGCT | 0.974 ± 0.067 |
| TAGGGGATTG | 1 ± 0.02 |
| TAGGGGCAGC | 1.01 ± 0.0054 |

| Sequence | switch fluorescence ratio |
| --- | --- |
| TAGGGGCGAG | 0.989 ± 0.048 |
| TAGGGGCGAT | 1.01 ± 0.032 |
| TAGGGGCTCG | 0.999 ± 0.032 |
| TAGGGGCTG | 1.01 ± 0.015 |
| TAGGGGGAGC | 1.01 ± 0.062 |
| TAGGGGGGCT | 0.968 ± 0.045 |
| TAGGGGGTAG | 1.01 ± 0.036 |
| TAGGGGGTGG | 1 ± 0.03 |
| TAGGGGGTGT | 0.991 ± 0.018 |
| TAGGGGTACA | 1.03 ± 0.016 |
| TAGGGGTTGC | 1.1 ± 0.11 |
| TAGGGTAGGT | 0.974 ± 0.0049 |
| TAGGGTATGA | 1.01 ± 0.02 |
| TAGGGTGCTG | 1.09 ± 0.16 |
| TAGGGTTAAG | 0.9994 ± 0.004 |
| TAGGGTTGCA | 1 ± 0.057 |
| TAGGGTTTTC | 0.988 ± 0.045 |
| TAGGTAAAGT | 0.981 ± 0.03 |
| TAGGTAGGCA | 1 ± 0.028 |
| TAGGTAGGCT | 0.974 ± 0.025 |
| TAGGTAGGGG | 0.99 ± 0.036 |
| TAGGTAGTTT | 0.969 ± 0.032 |
| TAGGTCAGGG | 0.965 ± 0.027 |
| TAGGTCGATA | 1 ± 0.023 |
| TAGGTCGTTT | 0.982 ± 0.01 |

| Sequence | switch fluorescence ratio |
| --- | --- |
| TAGGTCTCAG | 1.029 ± 0.0085 |
| TAGGTCTGCG | 0.978 ± 0.014 |
| TAGGTGAAGG | 1 ± 0.0069 |
| TAGGTGACAA | 1 ± 0.015 |
| TAGGTGATTT | 1.03 ± 0.023 |
| TAGGTGGCGT | 1.006 ± 0.0028 |
| TAGGTGGCTC | 1.03 ± 0.069 |
| TAGGTGTTAT | 1.02 ± 0.037 |
| TAGGTTGTGC | 0.976 ± 0.037 |
| TAGGTTGTTG | 0.969 ± 0.011 |
| TAGGTTTAGT | 0.9841 ± 0.0094 |
| TAGGTTTTTT | 0.989 ± 0.035 |
| TAGTAAAGAT | 1 ± 0.017 |
| TAGTAAAGGT | 1.022 ± 0.0068 |
| TAGTAACTAC | 1.05 ± 0.011 |
| TAGTAATCGT | 1.01 ± 0.063 |
| TAGTAATTGA | 1 ± 0.02 |
| TAGTACCGGT | 0.991 ± 0.029 |
| TAGTACGGGC | 1 ± 0.044 |
| TAGTACTCGT | 1.01 ± 0.011 |
| TAGTAGTCAA | 1.03 ± 0.011 |
| TAGTAGTTGC | 1.032 ± 0.0059 |
| TAGTAGTTTT | 1.01 ± 0.052 |
| TAGTATATTT | 0.954 ± 0.018 |
| TAGTCATTCA | 0.981 ± 0.026 |
